Assay results as given in the supplement of paper PMC9170038.

Test system: MS2 coat protein
Test: apparent KD of MS2 coat protein; designed switch direction (-1 OFF switch, 1 ON switch): 1; higher = weaker reporter binding
Procedure, shortened: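 Designed RNA switches with common flanks were made on Illumina chips by stalled E. coli RNA polymerase. Titration with SNAP-549-labelled MS2 coat protein doubled from 0.7 or 1.5 nM up to 3 µM. Apparent KD is each design's median over clusters after curve-fitting normalised fluorescence.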

[1] = input ligand: microRNA oligo, concentration not stated
[2] = Eterna round: R95, input ligand: FMN 200 uM
[3] = Eterna round: R95, input ligand: microRNA oligo, concentration not stated
[4] = Eterna round: R95, input ligand: none

| Sequence | apparent KD of MS2 coat protein (input ligand: FMN 200 uM) [nM] | apparent KD of MS2 coat protein [1] [nM] | apparent KD of MS2 coat protein (input ligand: none) [nM] | apparent KD of MS2 coat protein [2] [nM] | apparent KD of MS2 coat protein [3] [nM] | apparent KD of MS2 coat protein [4] [nM] |
| --- | --- | --- | --- | --- | --- | --- |
| UCAGUCAUGUAAGGAUAUGCAGCCGAAACGGCUGCAGAAGGUACUAUAAUUACAUGAGGAUCACCCAUGUUAUAAAAUAAAUAU [Mat - Same State NG 1 - JL mod - D65] (Eterna round: R96, puzzle: Same State NG 1) | 18.4 | 36 | 76.6 |  |  |  |
| AUAGUUGCCGAAGGAUAUGAUGAGGAUCACCCAUCAGAAGGUUGGCUAUUGGGUGGACAUGAGGAUCACCCAUGUCCUUUGGUU (Eterna round: R96, puzzle: Same State NG 1) | 58.2 | 68.9 | 113 |  |  |  |
| UGCCUGAGUCGAGGAUAUUAUGGAUCCUUUAAUACAUGAGGAUCACCCAUGUAAUUAAUUAUACAUGAGAAGGUGACUCAGGCA [SSNG2/11-B2] (Eterna round: R96, puzzle: Same State NG 2) | 39 | 126 | 289 |  |  |  |
| AAAGAAAACGCAGGAUAUCCCGGAAUGGAACCGGGAGAAGGGUGACCGGUACAUGAGGAUCACCCAUGUAGAGCAAAGGCUCAA [Oninqu] (Eterna round: R96, puzzle: Same State NG 1) | 78 | 114 | 124 |  |  |  |
| AUUAAACAUGAGGAUCACCCAUGUCAACAAAGUCGAGGAUAUGGGCAAAUAAAAUAAGAACCAGAAGGCGAAUUAU [salish99_ss1_r3_079] (puzzle: Same State 1) |  |  |  | 32.6 | 337 | 312 |
| AGAGGAGGAGCAGGAUAUGCGAAGAAGAACGUGGUAGAAGGGCUCAUGCGAUGACAUGAGGAUCACCCAUGUACCUCGCGAGGA [AK SSNG1-V2-9] (Eterna round: R96, puzzle: Same State NG 1) | 414 | 130 | 186 |  |  |  |
| GUUAUACAUGAGGAUCACCCAUGUCAAUGUAGUCGAGGAUAUGGGCAGCUAUGAGGCGUACUAGAAGGCGAAGAGU [JL-ss1-3.12 ViennaUCT mod] (puzzle: Same State 1) |  |  |  | 164 | 374 | 309 |
| GGUGCCAAUAAAGCCUACAUGAGGAUCACCCAUGUAUGUAGGUAGGAUAUCGUUUGCAAAGCAAACGAGAAGGGCCUAGGCACC [Mat - Same State NG 3 - JL Mod - D58] (Eterna round: R96, puzzle: Same State NG 3) | 27 | 43.7 | 53.1 |  |  |  |
| CCGGUGAUAGGGCAGGAUAUGACUGUCGUCACAUGAGGAUCACCCAUGUCCCGGCAAUGCCACCGUUAGAAGGGCCCUAUCCCGA [Teuszaesti] (puzzle: Same State 2) |  |  |  | 14.8 | 12.1 | 15 |
| UUGCUCGUGUGAGGAUAUGCCGCCGUUUCGGCUGCAGAAGGUACUAUAAUACAUGAGGAUCACCCAUGUCUCUGUUGUUUCGUG [salish99_SSNG1_r04_932] (Eterna round: R96, puzzle: Same State NG 1) |  | 23.7 |  |  |  |  |
| GGUGGGUUACUACCCACACAUGAGGAUCACCCAUGUAUUGGGAAGGAUAUGGUACCUAUUUGGUACCAGAAGGUCCUGAUGGUG [SS-NG3-LRO15] (Eterna round: R96, puzzle: Same State NG 3) | 1280 | 312 | 1610 |  |  |  |
| AGCGAAAUAAGCAAGGAUAUGUAAUUUGGCACAUGAGGAUCACCCAUGUCAAUCCAUUUUUUUGAACAGAAGGUGCAUUUUUUUU [ak second] (puzzle: Same State 2) |  |  |  | 48.6 | 53.5 | 45.4 |
| UGAAUAUUUACAGGAUAUGAGUUGUAUAGUGGGUCAGAAGGGUGGGUGUUUUGCACGGUGUGUUACAUGAGGAUCACCCAUGUU [SameState NG1 #27] (Eterna round: R96, puzzle: Same State NG 1) | 129 | 74.5 | 146 |  |  |  |
| GGUUUAGUCGAUUGCCGUUGCACUCGAAAACAUGAGGAUCACCCAUGUUUGGGACAAGCUUUGCUCCUCGUCUUUCC [Sous] (puzzle: Sensor for hsa-mir-208a) |  |  |  | 240 | 67.1 | 453 |
| GGACGUCAAUAUGAAUUCCACAUGAGGAUCACCCAUGUUCAUGAGGAUAUGGAUCCUAAUUGGAUCCAGAAGGCAUGGACGUCC [Fiskers NG3ss - 38] (Eterna round: R96, puzzle: Same State NG 3) | 81.9 | 163 | 194 |  |  |  |
| AUAAAACAUGAGGAUCACCCAUGUCAACAAAGUCGAGGAUAUGGGCAAAUAAAAUAAGAACCAGAAGGCGAAUAAG [salish99_SS1_r3_004] (puzzle: Same State 1) |  |  |  | 30.7 | 88 | 266 |
| AAAGUGCCGACGAAGGAUAUAGCGGGUGAGACAUGAGGAUCACCCAUGUAUGCAGAACUCAUCCUCUAGAAGGUUGAGACGGCUA [Bionlateat] (Eterna round: R96, puzzle: Same State 2) | 151 | 31.1 | 95.9 |  |  |  |
| CGGGUACAUGAGGAUCACCCAUGUUGGAGUAAUGCAGGAUAUGUGAGACGAGAAGAUAAAACAGAAGGGCAAGGAG [JR_SS!_Sub009] (puzzle: Same State 1) |  |  |  | 37.4 | 95 | 77.6 |
| UUAUAACAUGAGGAUCACCCAUGUCAUCUAAGUCGAGGAUAUGGGCAAAUAAUAUAAGAACCAGAAGGCGAAUAUU [Mat - Same State 1 - Mod of UCT - D46] (puzzle: Same State 1) |  |  |  | 106 | 147 | 232 |
| UGUACCUUCACAGGAUAUCAUGCGAAAAUUGCGUGAGAAGGGUGAAUACUGUCUUUCUAAGAGCACAUGAGGAUCACCCAUGUA [SameState NG1 #59] (Eterna round: R96, puzzle: Same State NG 1) | 195 | 206 | 278 |  |  |  |
| GGAGCCGGCACUGAGGAUAUUCAUAUUUAAACAUGAGGAUCACCCAUGUAGGCCAGAAGGCCUUGGGAGAAGGCAGGUCGGCUCU [salish99_ss2_r3_077] (puzzle: Same State 2) |  |  |  | 20.8 | 247 | 434 |
| ACAUGAGACUCAGGAUAUGUUGUACCUACAUGUGACAUGAGGAUCACCCAUGUGGUAAGUAUGAUACAGAAGGGAGAGAUAUGU [Equivalance 65 - Jieux - Same State NG 2] (Eterna round: R96, puzzle: Same State NG 2) | 20.5 | 22.1 | 43.6 |  |  |  |
| GUUACAUGAGGAUCACCCAUGUAUGUGUGGGAGUAAGUGUCUUAGGAUAUCUAUGAUUUAAUUGAAGAGAAGGAAGAUUGUUGU [JMF's solution 84] (Eterna round: R96, puzzle: Same State NG 3) |  | 99.1 |  |  |  |  |
